Target: FLAG-tagged murine lipin 1b (murine) (UniProt Q91ZP3)
Test: atomic force microscopy

stoichiometry N: 12
Substance: FLAG-tagged murine lipin 1b (from UniProt Q91ZP3 1-924) (enzyme)

Source: article PMC4041088
